System: K4 kissing-loop RNA reporter
Test: apparent KD of K4 kissing-loop reporter; higher = weaker reporter binding
Settings: Eterna round: R107
Experimental: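 RNA-MaP round R107: designed RNA switches with theophylline, tryptophan, arginine or FMN aptamers are transcribed on-chip within common flanks. They are titrated with a labelled K4 kissing-loop RNA reporter in RNA-MaP buffer (100 mM Tris pH 7.5, 80 mM KCl, 4 mM MgCl2), without ligand or with the indicated ligand. Median apparent KD per design.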

[1] = input ligand: theophylline 20 uM
[2] = input ligand: tryptophan 2.4 mM
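Note: bound reporter read as fluorescence of individual clusters on recovered sequencing chips by microscopy, with normalized cluster intensities fitted with a binding model.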

CGCGCUGCCUGAGGAUAUAGAAACGAGUGAUGUUCGUGGACAAGAGCCAGUGAUGUUGGGUUAUUUCUAGAAGGCAGGCGAUCGU [Exclusion FMN B GF5]
apparent KD of K4 kissing-loop reporter (input ligand: FMN 200 uM): 124 nM
apparent KD of K4 kissing-loop reporter (input ligand: arginine 13.2 mM): 106 nM
apparent KD of K4 kissing-loop reporter (input ligand: none): 128 nM
apparent KD of K4 kissing-loop reporter [1]: 125 nM
apparent KD of K4 kissing-loop reporter [2]: 97.5 nM

CGCUGGGCGAGUGAUGUUCGCUCACGUGAUACCAGUGCCAUCCAACACCCUUGGCAGCACGCGGGCAGUGAUGUUGUCCUUGUGG [Exclusion Theophylline A GF7]
apparent KD of K4 kissing-loop reporter (input ligand: FMN 200 uM): 284 nM
apparent KD of K4 kissing-loop reporter (input ligand: arginine 13.2 mM): 241 nM
apparent KD of K4 kissing-loop reporter (input ligand: none): 285 nM
apparent KD of K4 kissing-loop reporter [1]: 269 nM
apparent KD of K4 kissing-loop reporter [2]: 268 nM

CGGAGUGAUGUUCCGUUAAUUCCUUAGUUACGAGGACCGGUACGGCCGCCACUCGAUUUUAGUUUUAUUUAUUGUUUGGAAAUUU [JR_SSTryptoA_Sub008]
apparent KD of K4 kissing-loop reporter (input ligand: FMN 200 uM): 253 nM
apparent KD of K4 kissing-loop reporter (input ligand: arginine 13.2 mM): 268 nM
apparent KD of K4 kissing-loop reporter (input ligand: none): 290 nM
apparent KD of K4 kissing-loop reporter [1]: 327 nM
apparent KD of K4 kissing-loop reporter [2]: 113 nM

CGGCGCGGCGCGGCCGCCACUGCGCCUGGGCGCUCGCCGAGUGAUGUUCGUCGGCGGUCGGGUGGCAGGACCGGGUGCCGGCCCG [BDazzled - #20 SS Tryptophan B]
apparent KD of K4 kissing-loop reporter (input ligand: FMN 200 uM): 295 nM
apparent KD of K4 kissing-loop reporter (input ligand: arginine 13.2 mM): 227 nM
apparent KD of K4 kissing-loop reporter (input ligand: none): 217 nM
apparent KD of K4 kissing-loop reporter [1]: 169 nM
apparent KD of K4 kissing-loop reporter [2]: 141 nM

CGGCGUGCCUUAUCCUCAUCUCUGACUCAACGAGGACCGGUACGGCCGCCACUCGGAAGAGGCAGUGAUGUUGCCUACGCCGGUG [Oronat]
apparent KD of K4 kissing-loop reporter (input ligand: FMN 200 uM): 76.3 nM
apparent KD of K4 kissing-loop reporter (input ligand: arginine 13.2 mM): 82.7 nM
apparent KD of K4 kissing-loop reporter (input ligand: none): 77.3 nM
apparent KD of K4 kissing-loop reporter [1]: 82.3 nM
apparent KD of K4 kissing-loop reporter [2]: 81.4 nM

CGGCUUAGUAGCGCGAGUUGACGUGCCAUCCGAGGACCGGUACGGCCGCCACUCGUGAUCUGUUAAAGUGAUGUUUUAAUGCCAU
apparent KD of K4 kissing-loop reporter (input ligand: FMN 200 uM): 722 nM
apparent KD of K4 kissing-loop reporter (input ligand: arginine 13.2 mM): 602 nM
apparent KD of K4 kissing-loop reporter (input ligand: none): 712 nM
apparent KD of K4 kissing-loop reporter [1]: 711 nM
apparent KD of K4 kissing-loop reporter [2]: 639 nM

CGGGUACGUCAAGGAUAUAGGCAUGACGUAGUGCAGUGAUGUUGCUCGAGUCUCUUCAACUGAGGACUAGAAGGUGAUCGUAACA [theeternabot_sameState_KL_FMN_B_15]
apparent KD of K4 kissing-loop reporter (input ligand: FMN 200 uM): 491 nM
apparent KD of K4 kissing-loop reporter (input ligand: arginine 13.2 mM): 351 nM
apparent KD of K4 kissing-loop reporter (input ligand: none): 631 nM
apparent KD of K4 kissing-loop reporter [1]: 644 nM
apparent KD of K4 kissing-loop reporter [2]: 344 nM

CGUAGCAGACGAAGGAGCGGCUACCUGAAUCAGGGUGAUGCCUGAGUGAUGUUCAGGUAAAGCCAGGUAGGUCGCGUCUGCUACG [Arg B Ex t9a]
apparent KD of K4 kissing-loop reporter (input ligand: FMN 200 uM): 201 nM
apparent KD of K4 kissing-loop reporter (input ligand: arginine 13.2 mM): 203 nM
apparent KD of K4 kissing-loop reporter (input ligand: none): 232 nM
apparent KD of K4 kissing-loop reporter [1]: 235 nM
apparent KD of K4 kissing-loop reporter [2]: 210 nM

CGUCACACUUGAUGGUUAUCCAAUGAUGAUACCAGCCGUCGAGAUGGCCCUUGGCAGCAUGUGGUACAGUGAUGUUGUACAUUGG [theeternabot_sameState_KL_Theo_A_30]
apparent KD of K4 kissing-loop reporter (input ligand: FMN 200 uM): 392 nM
apparent KD of K4 kissing-loop reporter (input ligand: arginine 13.2 mM): 244 nM
apparent KD of K4 kissing-loop reporter (input ligand: none): 383 nM
apparent KD of K4 kissing-loop reporter [1]: 352 nM
apparent KD of K4 kissing-loop reporter [2]: 258 nM

CGUCUAUAGCAGGAUACCAGUACCCAUUAUGUACGUUUAUAGUAGAGUGAUGUUCUAAAGUACCCUUGGCAGCUUCCUGUGACCC [#24 K4 Theophylline B Exclusion]
apparent KD of K4 kissing-loop reporter (input ligand: FMN 200 uM): 179 nM
apparent KD of K4 kissing-loop reporter (input ligand: arginine 13.2 mM): 189 nM
apparent KD of K4 kissing-loop reporter (input ligand: none): 189 nM
apparent KD of K4 kissing-loop reporter [1]: 206 nM
apparent KD of K4 kissing-loop reporter [2]: 163 nM

CGUGAAGACCAGAGGUGAUGUAUAGUAUCGCGAGGACCGGUACGGCCGCCACUCGUGAAGAGAAAGGAGUGAUGUUCCGUAAUGG [C12]
apparent KD of K4 kissing-loop reporter (input ligand: FMN 200 uM): 246 nM
apparent KD of K4 kissing-loop reporter (input ligand: arginine 13.2 mM): 239 nM
apparent KD of K4 kissing-loop reporter (input ligand: none): 312 nM
apparent KD of K4 kissing-loop reporter [1]: 326 nM
apparent KD of K4 kissing-loop reporter [2]: 107 nM

CGUGAUGUAUGGCGGUUUGUCACUUAGGAUCAGGAUAUAUAAACAAAUAGAAGGGAUGGCGGAGUGAUGUUCCGCCGGCCGCCAU [FMN A Exl V8]
apparent KD of K4 kissing-loop reporter (input ligand: FMN 200 uM): 173 nM
apparent KD of K4 kissing-loop reporter (input ligand: arginine 13.2 mM): 128 nM
apparent KD of K4 kissing-loop reporter (input ligand: none): 161 nM
apparent KD of K4 kissing-loop reporter [1]: 150 nM
apparent KD of K4 kissing-loop reporter [2]: 148 nM

CGUUCCUCUGUCGAUACCAGCUUCAGUUGGCGGCCAGUGAUGUUGGUAUCGCCGAUGCCAAGCCCUUGGCAGCGACAGGAGACCC [Usleanza]
apparent KD of K4 kissing-loop reporter (input ligand: FMN 200 uM): 155 nM
apparent KD of K4 kissing-loop reporter (input ligand: arginine 13.2 mM): 165 nM
apparent KD of K4 kissing-loop reporter (input ligand: none): 211 nM
apparent KD of K4 kissing-loop reporter [1]: 95 nM
apparent KD of K4 kissing-loop reporter [2]: 163 nM

CGUUUAUAGCAGGAUACCAGUACCCAUUAUGUACGUUUAUAGUAGAGUGAUGUUCUAAAGUACCCUUGGCAGCUUCCUGUGACCC [ExTheophylB.Aa]
apparent KD of K4 kissing-loop reporter (input ligand: FMN 200 uM): 166 nM
apparent KD of K4 kissing-loop reporter (input ligand: arginine 13.2 mM): 168 nM
apparent KD of K4 kissing-loop reporter (input ligand: none): 181 nM
apparent KD of K4 kissing-loop reporter [1]: 194 nM
apparent KD of K4 kissing-loop reporter [2]: 145 nM

CUAUGGAAACAUAGUGAUCGGGAAACCGAUACCAGUAUGGAAACAUACCCUUGGCAGCGGAAUGAUCAAACGGAGUGAUGUUCCG [Theophylline A K4 21]
apparent KD of K4 kissing-loop reporter (input ligand: FMN 200 uM): 459 nM
apparent KD of K4 kissing-loop reporter (input ligand: arginine 13.2 mM): 318 nM
apparent KD of K4 kissing-loop reporter (input ligand: none): 648 nM
apparent KD of K4 kissing-loop reporter [1]: 278 nM
apparent KD of K4 kissing-loop reporter [2]: 288 nM

CUCGAGUGAUGUUCCUUUAUUUAUACAGAUACCAGUGAAUUUUAACACCCUUGGCAGCUGGUUGUAUCUUUGUUUUUUACACAUG [JR_Nu_ExcTheophyA_Sub025]
apparent KD of K4 kissing-loop reporter (input ligand: FMN 200 uM): 204 nM
apparent KD of K4 kissing-loop reporter (input ligand: arginine 13.2 mM): 128 nM
apparent KD of K4 kissing-loop reporter (input ligand: none): 205 nM
apparent KD of K4 kissing-loop reporter [1]: 270 nM
apparent KD of K4 kissing-loop reporter [2]: 155 nM

CUGACGCUGAUACGGUGGCCGCUGGUCGUGCGAGGACCGGUACGGCCGCCACUCGCAUGAGUGAUGUUCAUGUGUCGUCGUCGUC [#07 K4 Tryptophan A Exclusion]
apparent KD of K4 kissing-loop reporter (input ligand: FMN 200 uM): 122 nM
apparent KD of K4 kissing-loop reporter (input ligand: arginine 13.2 mM): 108 nM
apparent KD of K4 kissing-loop reporter (input ligand: none): 113 nM
apparent KD of K4 kissing-loop reporter [1]: 105 nM
apparent KD of K4 kissing-loop reporter [2]: 123 nM

CUGGGUUGACGAAAAGUCAACAAAAGAGAAGGAGCGCACGAAAGUGCAGGUAGGUCGCUCAUCCAGUGAUGUUGGAUCAUCCAGA [#SwitchBubble 16 #K4Late]
apparent KD of K4 kissing-loop reporter (input ligand: FMN 200 uM): 345 nM
apparent KD of K4 kissing-loop reporter (input ligand: arginine 13.2 mM): 611 nM
apparent KD of K4 kissing-loop reporter (input ligand: none): 316 nM
apparent KD of K4 kissing-loop reporter [1]: 646 nM
apparent KD of K4 kissing-loop reporter [2]: 273 nM

CUUAAGAUAUGAGUGAUGUUUAUGUCCGAAGGAGCGUGCGAAAGUACAGGUAGGUCGCGGAUGUGAGUGAUGUUCAUGUAAGCGA [KL-XArg-A13 #analogue]
apparent KD of K4 kissing-loop reporter (input ligand: FMN 200 uM): 132 nM
apparent KD of K4 kissing-loop reporter (input ligand: arginine 13.2 mM): 87.9 nM
apparent KD of K4 kissing-loop reporter (input ligand: none): 114 nM
apparent KD of K4 kissing-loop reporter [1]: 109 nM
apparent KD of K4 kissing-loop reporter [2]: 106 nM

CUUCAGAUCUGAAGGAGCGCGUUACCAGAAUGCAUCAUAGAGCAGUGAUGUUGCUCUGGAUCGCAGGUAGGUCGCAGAUCUGACG [Arg B Ex t7b]
apparent KD of K4 kissing-loop reporter (input ligand: FMN 200 uM): 196 nM
apparent KD of K4 kissing-loop reporter (input ligand: arginine 13.2 mM): 189 nM
apparent KD of K4 kissing-loop reporter (input ligand: none): 189 nM
apparent KD of K4 kissing-loop reporter [1]: 156 nM
apparent KD of K4 kissing-loop reporter [2]: 195 nM

CUUGAUGGAAACAUCGAGUAUUUCACUGAUACCAGUAUCGAUAGAUACCCUUGGCAGCAGGAUCAGUGUUUACGAGUGAUGUUCG [Ex Theophylline A K4 9]
apparent KD of K4 kissing-loop reporter (input ligand: FMN 200 uM): 444 nM
apparent KD of K4 kissing-loop reporter (input ligand: arginine 13.2 mM): 408 nM
apparent KD of K4 kissing-loop reporter (input ligand: none): 451 nM
apparent KD of K4 kissing-loop reporter [1]: 380 nM
apparent KD of K4 kissing-loop reporter [2]: 376 nM

CUUGGAAAGACGGCCGCCACUGGCCAGUGAUGUUGGCCCACCAGGUAAGCCAAGAAGCUUGACGUCAGGACCGGGUCCUAGGAAU [Exclusion TRyptophan B GF 23]
apparent KD of K4 kissing-loop reporter (input ligand: FMN 200 uM): 363 nM
apparent KD of K4 kissing-loop reporter (input ligand: arginine 13.2 mM): 449 nM
apparent KD of K4 kissing-loop reporter (input ligand: none): 410 nM
apparent KD of K4 kissing-loop reporter [1]: 314 nM
apparent KD of K4 kissing-loop reporter [2]: 359 nM

From the supplement of paper PMC9170038
